Test results published in PMC12193508.

Columns and labels:
[1] = biological target: MMsHsp (sHsp of Methanococcus maripaludis) (Methanococcus maripaludis); test: AUC; sedimentation velocity at 40 °C, 0.1 mg/mL, 40,000 rpm, Rayleigh interference optics, c(s20,w) with SEDFIT; oligomers of one protein
[2] = biological target: MMsHsp (sHsp of Methanococcus maripaludis) (Methanococcus maripaludis); test: AUC; sedimentation velocity at 40 °C, 1.0 mg/mL, 40,000 rpm, Rayleigh interference optics, c(s20,w) with SEDFIT; oligomers of one protein

In the case of “MMsHsp (sHsp of Methanococcus maripaludis) (natural protein)”, the w, weight fraction of peak a (N 2) [1] is reported as 31.3%, the w, weight fraction of peak b (N 8) [1] is reported as 4.2% and the w, weight fraction of peak c (N 18) [1] is reported as 10.9%. The w, weight fraction of peak d (N 24) [1] was 53.6%, the stoichiometry N [2] was 16 and the w, weight fraction of peak a (N 2) [2] was 16.8%. It also gave a w, weight fraction of peak b (N 8) [2] of 4.6%, a w, weight fraction of peak c (N 17) [2] of 5.3% and a w, weight fraction of peak d (N 24) [2] of 73.3%.
